According to the supplement of paper PMC10126150:
± gives the standard deviation of the averaged measurements.

system: ATP; test: switch fluorescence ratio, 500 uM ATP over buffer (Cy3 cluster intensity, sum of 5 cycles each) (fold (ratio)); higher = stronger signal-on switching upon ATP binding; sequences stand for … in TCGTCGGCAGCGTCAGATGTGTATAAGAGACAGTTTTTTTTTTTTTTTTTTTTTTTTT…TC; conditions: aptamer strand: ATP DNA aptamer (quencher-CACCTGGGGGAGTATTGCGGAGGAAGG + anchor), 100 nM annealed; ATP concentration: 500 uM
Procedure, shortened: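 Between each of five buffer/ATP cycles, the flow-cell was stripped with NaOH and re-annealed. Each cycle imaged Cy3-labelled switching-strand clusters, annealed to 100 nM quencher-labelled ATP aptamer on a modified Illumina MiSeq flow-cell, first in selection buffer and then after 15 min with 500 uM ATP at 22 °C. The fluorescence ratio is summed target-cycle over summed buffer-cycle Cy3 intensity per cluster, averaged per switch-domain sequence, with clusters outside 100-1000 RFU excluded.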
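Also: ATP exposure 15 min at 22 °C before imaging.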

Sequence	switch fluorescence ratio
AAGGTTGCAA	1.01 ± 0.011
AACTTTATGA	1.02 ± 0.01
ATAGGAGGGC	0.935 ± 0.036
TTATTTAGCG	1.03 ± 0.029
CGGAGAGAGG	1.01 ± 0.015
TCGATAGGGA	1.01 ± 0.03
AGCGAAAGGA	1.01 ± 0.023
AAGTCGGATG	1.04 ± 0.079
TCGTGTGGGG	1.02 ± 0.048
AAGTTGACCG	1.04 ± 0.046
TGGGTCGGCA	1.05 ± 0.023
TCCAATTGGG	1.11 ± 0.09
CGGATCGACA	0.976 ± 0.025
GGGGCTTTCG	1 ± 0.072
GCGCTCTTAT	1.001 ± 0.003
GAGAGCCGTC	1.08 ± 0.13
GACTACTAGC	1.05 ± 0.045
AAATCCCTAC	1.06 ± 0.028
GGGGTTTTAG	1.01 ± 0.018
CCAGGTCGAC	1.02 ± 0.063
GTTGAACGGT	1.1 ± 0.053
ACAGTTTTGC	0.985 ± 0.02
TGGGGATAGG	1.01 ± 0.022

Sequence	switch fluorescence ratio
GACGTATATG	0.973 ± 0.048
CGTTAATTAC	1.38 ± 0.036
TTTGCTTTCC	1.2 ± 0.17
CAAGGAGGGG	1.017 ± 0.0074
TTGATGGCTA	0.983 ± 0.021
TTCAGGAGGG	0.991 ± 0.042
ATTGGGGTG	1.03 ± 0.11
AATTGAGGGC	1.02 ± 0.035
TTTTGCGAAA	1.55 ± 0.9
GAGCTGTGGG	0.971 ± 0.039
AGTTATAAAG	0.986 ± 0.037
TCCAGTTTTT	0.999 ± 0.015
TGTATTGCGG	1.02 ± 0.0071
AGTACGATTG	1 ± 0.023
GAGGTAGGTC	0.9945 ± 0.0019
GATTTTGGTG	0.971 ± 0.023
TCCTTGATCC	1.02 ± 0.089
AACTTTGTGC	1 ± 0.055
AATCGGTGGG	0.997 ± 0.03
AGGGGGCAGA	1.03 ± 0.05
GCTTATCAGC	0.991 ± 0.013
GCATGAAAAC	1.03 ± 0.031
TCCCTTGGGT	1 ± 0.0092

Sequence	switch fluorescence ratio
GTTCAAGATA	1 ± 0.036
TTTTCTGTTT	0.996 ± 0.047
GGGGGGATTT	1.02 ± 0.063
TGGGGGGACT	1.02 ± 0.029
AAGAGGGCCT	1.01 ± 0.037
AGAGTATGGG	1.01 ± 0.038
ACCCCGGGCA	1.08 ± 0.018
CTCTGATGGG	0.986 ± 0.021
TACCTGAAAA	0.985 ± 0.022
AGGGGCGTAG	1 ± 0.025
GCTTATGGGA	1 ± 0.039
ATTTTAGAAT	1.02 ± 0.03
TTTGCGTTGT	1.022 ± 0.0061
TTCCGAGTTC	1.15 ± 0.13
AAAGGAGGAG	0.991 ± 0.038
CCAAGCTGAA	1.22 ± 0.035
ATCAAGGTTG	0.978 ± 0.031
TAAGGACGAG	1.02 ± 0.013
ATGTTTATTT	0.998 ± 0.041
GATCGACTTT	0.958 ± 0.012
CGGCTATGTT	0.9712 ± 0.0027
CCGGGCGAGC	1.08 ± 0.059
AAAAGTCGGC	1.04 ± 0.057

Sequence	switch fluorescence ratio
TGATGATGAC	1.01 ± 0.0038
TTTTATACCA	1.04 ± 0.039
ACAGGGGTAA	1.01 ± 0.013
TCGGAGGTCC	0.958 ± 0.029
ATGTAGGGAG	0.998 ± 0.017
GAAGCCGGAC	1.12 ± 0.035
GTGTCATAGC	0.975 ± 0.012
TGGTTCCAGT	1.003 ± 0.0058
TTATAAGCAG	1.02 ± 0.017
TTGGGGCTGG	1.01 ± 0.013
GGTTCTTGGT	0.949 ± 0.028
AGCGAGAGGG	0.974 ± 0.031
AAAGTGATTG	0.9723 ± 0.0028
CTTGTTGTTC	0.9981 ± 0.0063
AAGTGGGGTT	1.02 ± 0.029
ACGGGGTAAT	1.22 ± 0.35
TCGTTTGGTC	0.986 ± 0.01
TGTGGGGTTG	0.994 ± 0.033
TGATAGGGTC	1.06 ± 0.11
AGAAGTTTCG	1.011 ± 0.0068
GAGCGTAGGG	0.9537 ± 0.0089
CGAGGTTAAT	1.051 ± 0.0011
AAAAAGATTG	1.06 ± 0.08

Sequence	switch fluorescence ratio
CAAATGGGTT	1.01 ± 0.083
GGAAGTGGGA	1.018 ± 0.0069
GATGATATGG	0.9852 ± 0.0039
TTTGGCCCCG	0.9612 ± 0.0093
TTAAGGGGTT	1.03 ± 0.044
TTCAGTCCGG	1.01 ± 0.026
GCCGTCTTGA	1.01 ± 0.041
AAAAAAGAAG	1.01 ± 0.021
TACTTGGGAG	1.027 ± 0.0036
TTTGTGTCTT	0.967 ± 0.024
TTTAGGTACT	1.25 ± 0.34
ATGTTATACT	1.02 ± 0.028
TGCTATGGGC	1.01 ± 0.017
GGGCAAGGGG	1.02 ± 0.028
ATTATGGGTC	1 ± 0.043
TCTTAAGGGA	0.979 ± 0.025
TGGAGGAAGA	1.04 ± 0.055
TAATTGTGCT	0.979 ± 0.026
ATAAGGAGGA	1.1 ± 0.23
TTTTTGTTTT	1 ± 0.035
TATCAGTAGT	1.016 ± 0.0028
AAGTTTGGAT	0.9919 ± 0.005
TTATTTCGTG	0.998 ± 0.03

Sequence	switch fluorescence ratio
GGTGAACAGT	0.97143 ± 0.00048
TTTAAAAATT	0.987 ± 0.026
TCAGAATCGT	0.988 ± 0.026
ATTTTAAGTA	0.987 ± 0.031
AGCGGAGTTT	0.984 ± 0.031
ATGGGCTAGA	0.9731 ± 0.0052
GATGGTTTGA	1.02 ± 0.021
TTTATAACAC	1.05 ± 0.013
CATCATGTGT	0.9714 ± 0.0043
CGATGGTCGT	0.975 ± 0.028
CAGGGGTACG	0.991 ± 0.042
CGAAATACGG	2.83 ± 0.18
GGTTTGTGCT	0.94 ± 0.051
CACCCATTGC	1.584 ± 0.0038
GGGTGTGGG	0.986 ± 0.05
TATGTTAGAT	1.002 ± 0.01
GGGGGGTTAT	0.993 ± 0.026
TATTCATGTT	0.991 ± 0.029
TTAAAAGCAG	1.016 ± 0.0045
ACATAATTTC	1.03 ± 0.02
AGGGGTTAGC	0.974 ± 0.05
AACTAGAGAC	0.975 ± 0.01
GGGCCCGGGA	0.986 ± 0.018

Sequence	switch fluorescence ratio
TTTTTTGCAG	0.987 ± 0.029
CGTTAGAATC	1.014 ± 0.0082
CCCGGGAATC	1.06 ± 0.059
TTTTGTTTAG	0.992 ± 0.021
AGGTTGTTCT	0.967 ± 0.035
ATGTGGTTAC	1.01 ± 0.048
TGTTATTTTG	0.989 ± 0.041
ATATTACGAA	1.02 ± 0.035
GGCGTTTTAG	0.998 ± 0.034
TGACGTAAGG	0.994 ± 0.026
GGGGGAGGTT	0.977 ± 0.029
AGGGTGTGCC	1.01 ± 0.018
GGTCACGGCA	1 ± 0.013
AAGTCAATTC	1.36 ± 0.12
GGGAAAGGAC	1.03 ± 0.032
TACCAAGGGA	0.991 ± 0.00097
TAGAATGGCT	0.9907 ± 0.0057
AAGGCAGGGC	0.972 ± 0.04
CTGGGTATAG	1.02 ± 0.032
ATGCGGGTTT	1.02 ± 0.018
GATTATGGGG	1.01 ± 0.013
GCGGGGGCAA	1.0292 ± 0.00013
TTTTCATGAG	1.01 ± 0.012

Sequence	switch fluorescence ratio
AGTGGACGAC	0.9912 ± 0.0079
AAGGACCCCT	1.06 ± 0.026
TTGTTTTATC	1 ± 0.021
GTTCGGGGGT	0.986 ± 0.025
TTGTCGGCTT	1.002 ± 0.0092
GGCCGCAGGT	0.987 ± 0.023
TTACGGGGGT	1.017 ± 0.01
AGAGGGGGGG	0.999 ± 0.038
TGTGGGGGGA	0.983 ± 0.037
GGGGGCAATG	1.13 ± 0.064
ATGGAAAGGG	0.989 ± 0.041
AAACGGCGGC	1.05 ± 0.041
TGTGGAAAGG	1 ± 0.014
GGTTTAGCTG	0.984 ± 0.041
CGGATCGGTG	0.991 ± 0.019
CGTGGGAATT	0.977 ± 0.019
ACGGGATATA	1.02 ± 0.058
CAGTTCATCG	1.03 ± 0.025
AGGTCGTCGT	0.955 ± 0.017
TGATGGCATT	0.9893 ± 0.0071
